Among the data in paper doi:10.1101/2025.05.16.654599 (bioRxiv, 2025) are Kd values, retold here.

The target in one assay is mNeon PPM1H (human) (UniProt Q9ULR3). Description: MST; unlabeled Rab titrated (16 serial dilutions) against 100 nM fluorescent mNeon PPM1H form; Monolith NT.115; 30 min in the dark in a reaction buffer; 3 independent measurements with different protein preparations.
The next assay concerns the target T1, mNeon PPM1H (human, UniProt Q9ULR3 1-514).
T1 construct: PPM1H phosphatase, human, full length; mNeon inserted into loop 1 (residues 115-133) at position 125; mNeon is the fluorophore read in MST; not measured here; also called HisSUMO-mNeon PPM1H; His SUMO mNeon PPM1H; not shown: His-SUMO, N-terminal, cleaved; mNeon, internal (in loop 1 at position 125), kept
T1 sequence (looked up): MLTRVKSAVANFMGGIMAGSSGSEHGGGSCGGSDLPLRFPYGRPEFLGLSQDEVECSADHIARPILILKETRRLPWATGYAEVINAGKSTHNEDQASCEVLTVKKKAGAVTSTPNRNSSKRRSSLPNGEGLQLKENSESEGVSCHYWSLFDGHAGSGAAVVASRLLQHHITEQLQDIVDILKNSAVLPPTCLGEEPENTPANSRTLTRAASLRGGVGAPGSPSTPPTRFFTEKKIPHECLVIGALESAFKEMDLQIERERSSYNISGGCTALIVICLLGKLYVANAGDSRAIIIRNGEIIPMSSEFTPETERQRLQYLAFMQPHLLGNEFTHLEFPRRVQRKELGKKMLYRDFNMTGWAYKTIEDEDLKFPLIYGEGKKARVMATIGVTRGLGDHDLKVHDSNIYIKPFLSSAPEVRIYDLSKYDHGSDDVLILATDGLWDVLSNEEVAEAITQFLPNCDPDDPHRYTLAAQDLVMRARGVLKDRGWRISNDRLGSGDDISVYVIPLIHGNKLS
The description is as above. As to conditions: both partners purified.

As a reminder, the Kd is the concentration at which binding is half-saturated. With “Rab12 (Q101L) full length (from UniProt Q6IQ22-2 1-244) (natural protein)”, in the assay with mNeon PPM1H (human), the Kd turned out to be 7400 nM.

B1: Rab10 (Q68L) full length (natural protein, human, UniProt P61026 1-200, looked up)
chain: MAKKTYDLLFKLLLIGDSGVGKTCVLFRFSDDAFNTTFISTIGIDFKIKTVELQGKKIKLQIWDTAGLERFHTITTSYYRGAMGIMLVYDITNGKSFENISKWLRNIDEHANEDVERMLLGNKCDMDDKRVVPKGKGEQIAREHGIRFFETSAKANINIEKAFLTLAEDILRKTPVKEPNSENVDISSGGGVTGWKSKCC
notes: also called His SUMO Rab10 (Q68L); non-phosphorylated Rab10; not shown: His-SUMO, N-terminal, cleaved
For the molecule B1, binding with mNeon PPM1H was characterised by a dissociation constant (Kd) of 1300 ± 900 nM.

B2: His Rab8A (Q67L) full length (natural protein, human, UniProt P61006 1-207, looked up)
chain: MAKTYDYLFKLLLIGDSGVGKTCVLFRFSEDAFNSTFISTIGIDFKIRTIELDGKRIKLQIWDTAGLERFRTITTAYYRGAMGIMLVYDITNEKSFDNIRNWIRNIEEHASADVEKMILGNKCDVNDKRQVSKERGEKLALDYGIKFMETSAKANINVENAFFTLARDIKAKMDKKLEGNSPQGSNQGVKITPDQQKRSSFFRCVLL
notes: Printed both as 'His Rab8A' and 'Rab8A-6XHis'; also called Rab8A-6XHis; non-phosphorylated Rab8A
In the case of B2, the Kd with mNeon PPM1H amounted to 1400 ± 980 nM.

B3: thio-phosphorylated Rab8A (natural protein, human, UniProt P61006 1-207, looked up)
chain: B2 chain
modifications: thio-phosphorylated with ATPγS by MST3 kinase (residue not given); fully modified by PhosTag gel
notes: Rab8A GTPase, human, full length, non-prenylated, Q67L, thio-phosphorylated; Removal of His-MST3 before MST is not described for this preparation; also called thio-pRab8A; His pRab8A Q67L; source: E. coli, purified His Rab8A Q67L, then incubated overnight at 4°C with His-MST3 kinase and 2 mM ATPγS
Turning to B3, the Kd with mNeon PPM1H came out at 990 ± 630 nM.
